Target: 3D8 IgG-N434D mutant (mouse | human)
Sequence (heavy, as listed by the source, chain 1 of 2): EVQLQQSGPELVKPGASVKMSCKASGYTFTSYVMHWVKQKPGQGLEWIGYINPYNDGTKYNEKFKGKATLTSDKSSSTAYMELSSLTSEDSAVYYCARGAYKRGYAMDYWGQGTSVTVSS
Sequence (light, as listed by the source, chain 2 of 2): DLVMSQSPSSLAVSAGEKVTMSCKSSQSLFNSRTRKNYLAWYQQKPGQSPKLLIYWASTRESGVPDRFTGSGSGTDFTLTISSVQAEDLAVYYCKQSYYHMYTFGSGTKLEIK

With “tripartite motif-containing 21 (TRIM21) (from UniProt P19474 1-475) (natural protein)” as the substance, how does the secretion of IL-8 and TNF-α by THP-1 cells treated with 5 μM IgG for 6 h (ELISA), against cells treated with wt 3D8 IgG read?
Its secretion of IL-8 and TNF-α by THP-1 cells treated with 5 μM IgG for 6 h (ELISA), against cells treated with wt 3D8 IgG is 40 % higher.

— paper PMC6131520
